B1: SEQ ID NO. 10 (ssDNA)
DNA: AGCTGACACAGCAGGTTGGTGCCAACAAGAAAAGAAACCGTTACAGAAGACACTACAGAATAAGTGAAAAGCCGAGTCGAGCAATCTCGAAAT
B2: SEQ ID NO. 9 (ssDNA)
DNA: AGCTGACACAGCAGGTTGGTGCCCAAAAGAGCCAATCCACGACGACACCCCAAAAACCATATCACGAATACCCGAGTCGAGCAATCTCGAAAT
B3: SEQ ID NO. 12 (ssDNA)
DNA: AGCTGACACAGCAGGTTGGTGCGCCCAATACAGGCGCAGTATCTGTCCGTGGGCCGGGTAAAAGTTACGGACCGAGTCGAGCAATCTCGAAAT

How the values were obtained:
[1] = molecular target: T1, human galectin-1 (hGal1), native (Homo sapiens, UniProt P09382 SEQ:1-134); assay: thermal shift assay; results stated similar to SEQ ID NO 4 and 9; conditions: tags: expressed in E. coli M-15, lactosyl-Sepharose purified; chain copies: 2
Description: (§1) Thermofluor experiments were performed on an Mx3005 RT-PCR (Agilent Technologies) using the SYPRO® Orange dye (492/610 nm) (Invitrogen) as fluorescent probe. The purified (native and alkylated) protein samples were incubated for 30 min with increasing concentration of the molecules of interest, centrifuged, and submitted to the thermal denaturation assay, totalizing four distinct experiments. In a 96-well plate (Agilent Technologies) 20 μl of the reaction containing 5 μM of each protein in buffer PBS 1× and 5× SYPRO® Orange were heated from 25° C. to 95° C. at a rate of 1° C./min. The experimental result was processed as in the protocol previously described and the melting temperature was obtained using GraphPad Prism software (www.graphpad.com).

[2] = molecular target: T1, human galectin-1 (hGal1), native; assay: thermal shift assay; among the four with greatest Tm variation; conditions: tags: expressed in E. coli M-15, lactosyl-Sepharose purified; chain copies: 2
Description: as §1

T1 sequence (P09382 2-135): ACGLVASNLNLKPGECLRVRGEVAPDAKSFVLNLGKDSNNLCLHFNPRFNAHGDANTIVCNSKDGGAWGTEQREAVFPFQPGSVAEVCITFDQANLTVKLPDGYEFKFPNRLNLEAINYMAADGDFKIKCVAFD

| Binder | binding result [1] | binding result [2] |
| --- | --- | --- |
| B1 | binds |  |
| B2 |  | binds |
| B3 | binds |  |
